These results are taken from a protein production outcome set (Wang et al. 2014).

The data set can be described thus: label from the status in PepcDB records.
Turning to “FEERSGVVPCGTPWGQWYQTLEEVFIEVQVPPGTRAQDIQCGLQSRHVALAVGGREILKGKLFDSTIADEGTWTLEDRKMVRIVLTKTKRDAANCWTSLLESEYAADPWVQDQMQRKLTLERFQKENPGFDFSGAEISGNYTKGGPDFSNLEKDGT”, the protein production entry is “not failed”.
To “FEPRSLITSDKGFVTMTLESLEEIQDVSCAWKELNRKLSSNAVSQITRMCLLKGNMGVCFDVPTTESERLQAEWHDSDWILSVPA” belongs “not failed”; to “FGAEFSSEACRELGFSSNLLCSSCDLLGQFNLLQLDPDCRGCCQEEAQFETKKLYAGAILEVCGUKLGRFPQVQAFVRSDKPKLFRGLQIKYVRGSDPVLKLLDDNGNIAEELSILKWNTDSVEEFLSEKLERI”, “failed”.
In the case of “FGLEGLPKHLKRIPLECLVEAKSYLRQYPQVDSERIGIYGRSKGAELVLAEESIFNDVQCLVLNSPSDVVDEGIIGKWNSHTSSWTHLQKELPYQKFRFRDYLFSKLFRKDFPKDCSARIDIGQMHSPILLLESTVDEIWDASSAIDDIVSHYKGHYITFKKYHETGHMLTVAYQPNHRYRKDWHLLMKESEDSWLATIHFFDRHLK”, the protein production entry is reported as “failed”.
With “FGNQKIFVCDARADWTNEFRTCSMFKNVHINRWYVITPSRNLRETQEFVQMCIRTASSMKMNICNPIYEEIPDDRNGTYSQAIDNAAANDPQIVMVVMRS”, the protein production entry is “failed”.
Consider “FHPVYSVQLEQKLVEKFNLKRALISLDQPNTNEQRKQVAALVSSYLNNNLQEGMAVAVGQGQNVAAVADHAGIVTQRNARFVSAIGGTHRSGDIINADHICRRLAKKYGGSSETLYAPAYVNDPSLRSAFMEHATIKETLSQARKAEFALVGIGDMDENSHMVKLGFFTPKEFVEARLNDGIVGDIGGFDFFKLDGTDADTLMRGRVIGLEMEDLRQIPNVVAMASESRKALSIMGALRTGVIDVLATSVSCAMALLNLAENEE”, for which the protein production result is listed as “not failed”.
As for “FLCMIPMFLYDFSSDKVIALIARILYFSDYFIVILFLIFIINSTKYSPFVLENVKRFKVMGCCLLINTIIECINGYNLNTNNIRIFGTDSGGISPLMVISFIFALMCFVIAETFDKAIKIKEDNDLTI”, the protein production entry is listed as “failed”.
The result for “FRLIGKHRLPRVDSAAKSDGSALYTQDMKLPGMLVAVVAHAPRLGAAVARVDDAAARAVPGVRAVVRFGGAALRHAGVAVLATNTWAARAGRDALRIEWDEGP” reads “failed”; that for “FRPVMPSRQIVERQPRMLDFRVEYRDRNVDVVLEDTCTVGEIKQILENELQIPVSKMLLKGWKTGDVEDSTVLKSLHLPKNNSLYVLTPDL”, “failed”; that for “GDIEQAAGHVVDGLSHLEVHPDVPDGIRALRERGFRLVTMTNGSSDLSKRLLGRAGLADCFESHLDASGPQRWKPAQAAYQYVVEQVGVRLDEAVLVAVHPWDVDGAQRAGLGGAWLRRDAADYPQVMLPPTYTVGNLRELAETLA”, “failed”.
“GEKIFVRVTSVGRNNCRVDCYGIEYRVPINEIDYGYIDKVDKYVQVGDVVPAIIKELDIDNNIVVVSIKEAKEDPYLGIVKSLNKG”: the protein production entry is reported as “failed”.
“GFAAYIWGSDFSFEVSAYAVAEREVPVADWVLRRIVPYRKCYGIDPEEFSSYRNAADSEIFMAYLDDQPVGHVVVSTNWNGYAHIDELAVHAPARRHGVARALLDVAQFWSRRKKLPGMMLETQNNNLGACRLYEQCGYVVGGVDHLRYRGIDPQTAEVAIFWYRLFANELE”: the protein production result is on record as “failed”.
“GGDTELSDSPTLPLNSILAGNCIEILKTLPDNSVDLIFADPPYNLQLSGELFRPEGSRVDAVNNAWDKFDTFAAYDHFTRLWLKEAHRVLKEDGTIWVIGSYHNIFRVGTALQDQGFWILNDIIWRKSNPMPNFKGRRFTNAHETLIWASKSDKSRYVFNYASLKTFNDDLQMRSDWLLPICSGNERLKGENGQKIHPTQKPEALLYRIILASSRPDDVILDPFFGTGTTGVIARHLRRHWIGIEQDPTYIKAAQARIDKAEVF”: the protein production result is “not failed”.
As to “GGRAVARTLIQDVTERVRSRKKLEHYREYTDRLLDAIDDLFLVFDEEAKLTRWNDRVVEVTGYADEALGGMEALGFVPEEERERVASQIADGFMTGHAKMDIPLRRADGTTVPYEIAGNLVDRP”, the protein production entry is “failed”.
Take “GGRGIIRLIKDNKSLTMKNTEVMLHGSSLAFDASTLEIYAALLNGACLSIIDKEDLIDSQTLKEKLKNDHVNRAFFTTPLFNSLCEQDPSVFNELEQVIIGGDRASNKHLKIVMKNSKKTQFYNGYGPTENTVFTTMHNIQYSELEGDIPIGKA”: the protein production entry is reported as “failed”.
To “GHHHHHHAIAENLYFQSSRNPEVLWAQRSDKVYLTVALPDAKDISVKCEPQGLFSFSALGAQGERFEFSLELYGKIMTEYRKNVGLRNIIFSIQKEERSWWTRLLKSEEKPAPYIKVDWNKWCDEDEEVNSETASDDESAFVNQDSESSDDDGLLYLPDLEKARNK” belongs “failed”; to “GIHMGKIKRRAITEHEKRALRHYFFQLQNRSGQQDLIEWFREKFGKDISQPSVSQILSSKYSYLDNTVEKPWDVKRNRPPKYPLLEAALFEWQVQQGDDATLSGETIKRAAAILWHKIPEYQDQPVPNFSNGWLEGFRKRHILH”, “not failed”; to “GIHYTSEKDIRQIVRPTIADYWEGKIDEATTYEDLEKLKQELREYRVLDPACGSGNFLYVAYQELKRLERVLLNKIYERRKRFQGEVLQQEEIGIVTPLQFFGMDTNPFAVQLARVTMMIARKIAIDKFGLTEPALPLDSLDQNIVCQDALFNDWPKADAIIGNPPFLGGSRVRLELGDKYVERIFEKFSDVKDKVDFCVYWFRLAHENLNKTGRAGLVGTNSISQGFSRRASLEYIVNNGGIIHDAISTQVWSGQANVHVSLVNWQYLKPPEYVLDHEIVKNINSSLKSETDVSNAVKLK”, “failed”.
Take “GLIDESEQRLVDNIFEFEEKKIREIMVPRTDMVCIYESDSEEKILAILKEEGVTRYPVCRKNKDDILGFVHIRDLYNQKINENKIELEEILRDIIYISENLTIDKALERIRKEKLQLAIVVDEYGGTSGVVTIEDILEEIVGEIQ”: the protein production entry is “not failed”.
For the sequence “GLPAVDSEILEMPPEKADGVVEGIDVNGPKAQLMLRYPDGKREQITLPEQAKLLALVKHVQSKGYPNERFELLTNFPRRKLSHLDYDITLQEAGLCPQETVFVQERN”, the protein production result was “failed”.
With “GLPVAQSTTTLIDALRTHRMAVVQAPPGTGKTTLVPPIAHNVTGGRVIVVAPRRVAVRAAAHHLVQLDQSSCDQPSTHRVGYTIRGERSRGDLVEFVTPGVLLRRLISNPELDGVSAVVVDEVHERQLDTDLVLGMLVELRELRDDLTVIAMSAT”, the protein production result is listed as “failed”.
To “GLTTPLRELVENGFREGRIKIISSTPTLAAGLNLPARRVIIRSYRRYSSDSGMQPIPVLEYKQMAGRAGRPRLDPYGEAVLLAKSYEEFVFLFEKYIEAGAEDIWSKLGTENALRTHILSTISNGFA” belongs “failed”.
To “GMQGFFFNTRREIFKDKRVREALFYAFDFEWANKNLFFSQYKRTTSFFSNSIYASPPLPSPEEKALLAPYEKSLDERVFKEPYVVPRTDGVDVLGYNLRENLKYAQKLLESTGFSYKNMRLVDKNNKPFSFTLLLNSPAFERLALAFAKNLRVLGIEMKIQRVDLSQYVNRIKSYDFDMIVGVIGQSSFPGNEQRFYFGSLSAKEKGTRNYAGISSKAVDDLIEKIINAKDYKEQLAAIQAMDRVLLWGFYVIPHFYLP” belongs “failed”; to “GNQSTSSKGSDTKKEQITVKHQLDKNGTKVPKNPKKVVVFDFGSLDTLDKLGLDDIVAGLPKQVLPKYLSKFKDDKYADVGSLKEPDFDKVAELDPDLIIISARQSESYKEFSKIAPTIYLGVDTAKYMESFKSDAETIGKIFDKEDKVKDELANIDHSIADVKKTAEKLNKNGLVIMANDGKISAFGPKSRYGLIHDVFGVAPADQNIKASTHGQSVSYEYISKTNPDYLFVIDRGTAIGETSSTKQVVENDYVKNVNAVKNGHVIYLDSATWYLSGGGLESMTQMIKEVKDGLEK”, “not failed”; to “GPGSMYRSRPEPVQGHLFTYYKDPYCKIPVFMMNMDARRCVLWVGGQTESLLSFDYFTNLAEELQGDWAFVQVEVPSGKIGSGPQDHAHDAEDVDDLIGILLRDHCMNEVALFATSTGTQLVFELLENSAHKSSITRVILHGVVCDPENPLFTPEGCAARKEHVEKLMAEGRGEDSLAMLKHYDIPITPARLAGGGFPTLQEAVWNPCIRKEFDVLRRSVGVIKVPLLLMLAHNVQYKPSDEEVGTVLEGVRDHTGCNRVTVSYFNDTCDELRRVLKAAESEHVAAILQFLADEDEFRTETEKNNRIKAAEDEKKRKSVLQVSSFAQAASSVKAS”, “not failed”.
As for “GPLGSAMRELLLSDEYAEQKRAVNRFMLLLSTLYSLDAQAFAEATESLHGRTRVYFAADEQTLLKNGNQTKPKHVPGTPYWVITNTNTGRKCSMIEHIMQSMQFPAELIEKVCGTI”, the protein production entry is “not failed”.
Regarding “GPVPTPPDNIQVQENFNISRIYGKWYNLAIGSTCPWLKKIMDRMTVSTLVLGEGATEAEISMTSTRWRKGVCEETSGAYEKTDTDGKFLYHKSKWNITMESYVVHTNYDEYAIFLTKKFSRHHGPTITAKLYGRAPQLRETLLQDFRVVAQGVGIPEDSIFTMADRGECVPGEQEPEPILIPRV”, the protein production entry is listed as “not failed”.
With “GQLAQDGVPEWFHGAISREDAENLLESQPLGSFLIRVSHSHVGYTLSYKAQSSCCHFMVKLLDDGTFMIPGEKVAHTSLDALVTFHQQKPIEPRRELLTQPCRQKD”, the protein production entry was “not failed”.
Take “GQTAKLVSLRDISDRKRMENQLRENQNKYYRLLENLDNGVIVHNANAEIVYANPKAESFLGLTDLEGRDIDDEYWMFFDKEGEKLEKEEFPVAQVLANQSSLKNFEMGIYRPDTDQLLWAYINAYPEFYNE”: the protein production entry is on record as “failed”.
The result for “GRDFAVDTKIETIGLTGSLSFKVNDNFSLGAGVIIQRTSGFVSQNLDLYASAANSPGMGGIPFPASNSSALMRVKVDNTSPGFFAGAVWKPTDRDTLGFAYHAKIRNKLKGHYNLYDHDGGLTEGAIEGGTPGLAYPGLDLRMGASASARLDIPAYASLDWVHQFNDRLSLGASATWTEWSSFQDLTLKSHGNTIVSIPYTYRNTWTLAVGGDYKVTDQWTMRAGVAYDQTPTHNATRDPRIPDGDRYFASLGAGYRFQSMPELSIDAAYSRQFVKEVPLKTV” reads “failed”; that for “GSHFYFLSKRRRNLLRNPCGEEDLEGWSDVEHGGDGWKVEELPGDNGVEFTQDDSVKKYFASSFEWCRKAQVIDLQAEGYWEELLDTTQPAIVVKDWYSGRTDAGSLYELTVRLLSENEDVLAEFATGQVAVPEDGSWMEISHTFIDYGPGVRFVRFEHGGQDSVYWKGWFGARVTNSSVWVEP”, “not failed”.
On to “GSHMDKTFCVVVQNRIKEGYRRAGFSFHLGDNSLAAVSESQLAQLKADPRLVVQITETGSQEGGEGLSKEPAGSDEQKQLRADPPSTDLNTFTVEQLKAQLTERGITFKQSATKAELIALFAPADGEKSEA”, for which the protein production entry is recorded as “not failed”.
“GSLKCILLNQAEELPIEFLPKDGVYGKGKLFDSRNMEIENFTESDILQDARRAAEAHRRARYRVQSIVRPGITLLEIVRSIEDSTRTLLKGERNNGIGFPAGMSMNSCAAHYTVNPGEQDIVLKEDDVLKIDFGTHSDGRIMDSAFTVAFKENLEPLLVAAREGTETGIKSLGVDVRVCDIGRDINEVISSYEVEIGGRMWPIRPISDLHGHSISQFRIHGGISIPAVNNRDTTRIKGDSFYAVETFATTGKGSIDDRPPCSHFVLNTYKSRKLFNKDLIKVYEFVKDSLGTLPFSPRHLDYYGLVKGGSLKSVNLLTMMGLLTPYPPLNDIDGCKVAQFEHTVYLSEHGKEVLTRGDDY”: the protein production result is “not failed”.
